Data: US20220073635A1 (ALLIGATOR BIOSCIENCE, published 2022)
Where a chain is given by its changes, count along the chain named.

T1: EpCAM-Fc (Sino hEpCAM_Fc #10694-H02H) (human, UniProt P16422 24-265)
T1 construct: Bought protein, called dimeric; also called dimeric antigen EpCAM-Fc; not shown: Fc part
T1 sequence (looked up): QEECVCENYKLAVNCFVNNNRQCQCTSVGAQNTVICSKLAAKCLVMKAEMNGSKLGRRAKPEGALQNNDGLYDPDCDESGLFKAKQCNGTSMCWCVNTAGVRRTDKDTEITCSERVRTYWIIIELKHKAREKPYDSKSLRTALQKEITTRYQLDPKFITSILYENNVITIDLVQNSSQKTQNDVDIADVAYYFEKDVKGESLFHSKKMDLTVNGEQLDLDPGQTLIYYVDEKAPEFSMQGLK

T2: hEpCAM (R&D Systems #9277-EP) (human, UniProt P16422 24-265)
T2 construct: Bought protein, monomeric; also called human EpCAM; monomeric antigen EpCAM-his; not shown: His tag
T2 sequence (looked up): T1 sequence (looked up)

T3: human EpCAM expressed on cells (human, UniProt P16422 24-314)
T3 construct: whole, on cells; also called EpCAM-transfected CHO cells; CHO-EpCAM
T3 sequence (looked up): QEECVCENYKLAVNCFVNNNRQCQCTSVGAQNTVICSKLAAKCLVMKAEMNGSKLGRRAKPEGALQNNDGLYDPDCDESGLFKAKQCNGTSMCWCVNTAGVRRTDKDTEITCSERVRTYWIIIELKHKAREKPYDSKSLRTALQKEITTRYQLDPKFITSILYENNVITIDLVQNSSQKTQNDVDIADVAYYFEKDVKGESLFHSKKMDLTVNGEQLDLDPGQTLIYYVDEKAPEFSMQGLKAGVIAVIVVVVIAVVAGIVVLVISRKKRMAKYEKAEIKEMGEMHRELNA

B1: 1132-3174.R (bispecific antibody)
chain 1: not shown
chain 2: ELVMTQSPSSLTVTAGEKVTMSCKSSQSLLNSGNQKNYLTWYQRKPGQPPKLLIYWASTRESGVPDRFTGSGSGTDFTLTISSVQAEDLAVYYCQNDYSYPLTFGAGTKLEIK
chain 3: DIQMTQSPSSLSASVGDRVTITCRASQSISSYLNWYQEKPGKAPKLLIYAASSLQSGVPSRFSGSGSGTDFTLTISSLQPEDFATYYCQQYGRNPPTFGQGTKLEIKRTVAAPSVFIFPPSDEQLKSGTASVVCYLNNFYPREAKVQWKVDNALQSGNSQESVTEQDSKDSTYSLWSTLTLSKADYEKHKVYACEVTHQGLSSPVTKSFNRGEC
chain 4: EVQLLEQSGAELVRPGTSVKISCKASGYAFTNYWLGWVKERPGHGLEWIGDIFPGSGNIHYNEKFKGKATLTADKSSSTAYMQLSSLTFEDSAVYFCARLRNWDEPMDYWGQGTTVTVSSASTKGPSVFPLAPSSKSTSGGTAALGCLVKDYFPEPVTVSWNSGALTSGVHTFPAVLQSSGLYSLSSVVEVPSSSLGTQTYICNVNHKPSNTKVDKKVEPKSC
B2: 1132-005025.M (bispecific antibody)
VH: EVQLLESGGGLVQPGGSLRLSCAASGFTFSSYAMSWVRQAPGKGLEWVSGIGSYGGGTYYADSVKGRFTISRDNSKNTLYLQMNSLRAEDTAVYYCARYVNFGMDYWGQGTLVTVSS
VL: DIQMTQSPSSLSASVGDRVTITCRASQSISSYLNWYQQKPGKAPKLLIYAASSLQSGVPSRFSGSGSGTDFTLTISSLQPEDFATYYCQQYGRNPPTFGQGTKLEIK
scFv: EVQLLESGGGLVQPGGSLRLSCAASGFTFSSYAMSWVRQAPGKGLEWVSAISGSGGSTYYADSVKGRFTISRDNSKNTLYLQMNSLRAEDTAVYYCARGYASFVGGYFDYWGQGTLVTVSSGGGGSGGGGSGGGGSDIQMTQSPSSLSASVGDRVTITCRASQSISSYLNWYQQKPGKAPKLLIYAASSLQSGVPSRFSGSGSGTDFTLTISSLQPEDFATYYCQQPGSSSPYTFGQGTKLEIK
notes: also called CD40-EpCAM bispecific antibody in the Morrison format
B3: 1132-3188.M (bispecific antibody, V domains shown)
VH 1: B2 VH
VL 1: B2 VL
VH 2: EVQLVQSGPGLVQPGGSVRISCAASGYTFTNYGMNWVKQAPGKGLEWMGWINTYTGESTYADSFKGRFTFSLDTSASAAYLQINSLRAEDTAVYYCARFAIKGDYWGQGTLLTVSS
VL 2: DIQMTQSPSSLSASVGDRVTITCRSTKSLLHSNGITYLYWYQQKPGKAPKLLIYQMSNLASGVPSRFSSSGSGTDFTLTISSLQPEDFATYYCAQNLEIPRTFGQGTKVELK
notes: also called CD40-EpCAM bispecific antibody in the Morrison format; 3188 = 4D5MOCB = BM1
B4: 1132.m2 (antibody, V domains shown)
VH: B2 VH
VL: B2 VL
notes: also called LALA-mutated agonistic monoclonal CD40 antibody
B5: 1132-3174.M (bispecific antibody, V domains shown)
VH 1: B2 VH
VL 1: B2 VL
VH 2: EVQLLEQSGAELVRPGTSVKISCKASGYAFTNYWLGWVKQRPGHGLEWIGDIFPGSGNIHYNEKFKGKATLTADKSSSTAYMQLSSLTFEDSAVYFCARLRNWDEPMDYWGQGTTVTVSS
VL 2: B1 chain 2 with R44Q
notes: as for B2
B6: 1132-005038.M (bispecific antibody)
VH: B2 VH
VL: B2 VL
scFv: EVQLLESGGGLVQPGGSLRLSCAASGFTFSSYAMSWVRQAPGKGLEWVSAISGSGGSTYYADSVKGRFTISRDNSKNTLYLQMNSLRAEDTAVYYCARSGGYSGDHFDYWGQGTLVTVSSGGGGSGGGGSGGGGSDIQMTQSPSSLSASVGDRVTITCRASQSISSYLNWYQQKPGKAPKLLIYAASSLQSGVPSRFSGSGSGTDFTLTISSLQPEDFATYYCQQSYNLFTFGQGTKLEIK
notes: as for B2

What was measured:
[1] = biological target: T1, EpCAM-Fc (Sino hEpCAM_Fc #10694-H02H); test: Octet BLI, Assay 3: EpCAM-Fc coupled to AR2G sensor, bsAb in solution, 1:1 fit
Protocol: (§1) Kinetic measurements were performed using the Octet RED96 platform (ForteBlo).
Antigen was coupled to Amine reactive Second generation sensors (Dip and Read Amine reactive Second-Generation (AR2G) Biosensors (Part no #18-5092 (tray)) at antigen concentrations of 0.4, 1.5, 0.25 or 0.5 μg/mL. BsAb (serially diluted ½ in 1× Kinetic buffer (ForteBio) with start concentrations of 20, 15, 10 or 25 nM) were analysed for binding to antigen-coupled sensors. The association was followed for 300 seconds and the dissociation in 1× Kinetic buffer for 300 seconds. Sensor tips were regenerated using 10 mM glycine, pH 2.2. Data generated were referenced by subtracting a parallel buffer blank, the baseline was aligned with the y-axis, inter-step correlation by alignment against dissociation was performed and the data were smoothed by a Savitzky-Golay filter in the data analysis software (v.9.0.0.14). The processed data were fitted using a 1:1 Langmuir binding model with X2 as a measurement of fitting accuracy.

[2] = biological target: T1, EpCAM-Fc (Sino hEpCAM_Fc #10694-H02H); test: Octet BLI, Assay 1: bsAb on FAB2G sensor, dimeric EpCAM-Fc in solution, 1:1 fit
Protocol: as §1
(§2) BsAb at 1.0 or 1.5 ug/ml where coupled to anti-human Fab-CH1 2nd generation (FAB2G) biosensors (Part no #18-5125 (tray)). Antigens were serially diluted % in 1× Kinetic buffer (ForteBio) to 100 nM, 50 nM, 25 nM, 12.5 nM, 6.25 nM, 3.125 nM, 1.56 nM or 0 nM. The association was followed for 300 seconds and the dissociation in 1× Kinetic buffer for 300 seconds. Sensor tips were regenerated using 10 mM glycine, pH 1.5. Data generated were referenced by subtracting a parallel buffer blank, the baseline was aligned with the y-axis, inter-step correlation by alignment against dissociation was performed and the data were smoothed by a Savitzky-Golay filter in the data analysis software (v.9.0.0.14). The processed data were fitted using a 1:1 Langmuir binding model with X2 as a measurement of fitting accuracy.

[3] = biological target: T2, hEpCAM (R&D Systems #9277-EP); test: Octet BLI, Assay 2: bsAb on FAB2G sensor, monomeric EpCAM-his in solution, 1:1 fit
Protocol: as §1, §2

[4] = biological target: T3, human EpCAM expressed on cells; test: flow cytometry, biotinylated antibody titrated on EpCAM-transfected and control CHO cells, streptavidin detection
From the text: The human EpCAM gene was cloned into pcDNA3.1, and the vector was subsequently stably transfected into CHO cells. Control CHO cells were stably transfected with and empty pcDNA3.1 vector. […] Binding of biotinylated antibodies was detected with fluorochrome-conjugated streptavidin and analysed using flow cytometry.

[5] = biological target: T4, CD40 on human peripheral blood mononuclear cells (human, UniProt P25942 21-277); test: flow cytometry, biotinylated antibody titrated on human PBMC (B cells, monocytes, T cells, NK cells gated), streptavidin detection
T4 construct: whole, on cells; also called CD40+ cell populations among PBMC (B cells, monocytes)
From the text: Binding of biotinylated antibodies was detected with fluorochrome-conjugated streptavidin and analysed using flow cytometry.

[6] = biological target: T5, biotinylated hCD40 (504-030 from Ancell) (human, UniProt P25942 21-193, biotinylated); test: dual ELISA, bsAb captured on plate-coated hEpCAM, detected with biotinylated hCD40 and streptavidin-HRP
T5 construct: Detection reagent of the dual ELISA
Protocol: Plates were coated with 0.5 μg/mL hEpCAM (R&D Systems #9277-EP) in PBS over night at 4° C. After washing in PBS/0.05% Tween 20 (PBST), the plates were blocked with PBS/0.2% BSA for at least 30 minutes at room temperature before being washed again. Samples serially diluted from 50 nM in PBS/0.02% BSA were then added and allowed to bind for at least 1 hour at room temperature. […] Dual antigen-complexed bsAb were detected with HRP-labelled streptavidin. SuperSignal Pico Luminescent was used as substrate and luminescence signals were measured using Fluostar Optima.

T5 sequence (P25942 21-193 limits assumed): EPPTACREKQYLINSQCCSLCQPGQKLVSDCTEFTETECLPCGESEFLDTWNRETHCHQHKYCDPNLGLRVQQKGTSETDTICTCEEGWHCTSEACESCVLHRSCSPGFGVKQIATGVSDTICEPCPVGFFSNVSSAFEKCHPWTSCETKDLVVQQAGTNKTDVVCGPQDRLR
T4 sequence (P25942 21-277): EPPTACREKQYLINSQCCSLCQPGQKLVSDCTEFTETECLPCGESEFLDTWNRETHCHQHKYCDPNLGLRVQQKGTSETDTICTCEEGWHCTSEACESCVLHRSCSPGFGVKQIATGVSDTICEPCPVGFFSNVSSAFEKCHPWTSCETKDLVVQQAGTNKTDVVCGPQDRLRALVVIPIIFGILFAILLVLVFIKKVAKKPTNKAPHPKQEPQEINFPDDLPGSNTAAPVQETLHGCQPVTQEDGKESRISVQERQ

Row | Binder | Kd [1] [nM] | koff [1] [s⁻¹] | kon [1] [M⁻¹ s⁻¹] | Kd [2] [nM] | koff [2] [s⁻¹] | kon [2] [M⁻¹ s⁻¹] | Kd [3] [nM] | koff [3] [s⁻¹] | kon [3] [M⁻¹ s⁻¹] | binding result [4] | binding result [5] | binding result [6]
1 | B1 | 8 | 0.001 | 100000 |  |  |  |  |  |  |  |  | 
2 | B2 |  |  |  | 4 | 0.001 | 300000 | 300 | 0.01 | 30000 |  |  | 
3 | B3 |  |  |  | < 0.001 | < 1e-07 | 300000 | 30 | 0.004 | 100000 |  |  | 
4 | B4 |  |  |  |  |  |  |  |  |  | no binding | binds | 
5 | B5 |  |  |  | 0.5 | 8e-05 | 200000 | 500 | 0.01 | 20000 |  |  | binds
6 | B6 |  |  |  | 6 | 0.002 | 300000 | 1000 | 0.01 | 8000 |  |  | 
